In patent publication US12099068B2, “Biomarkers for graft-versus-host disease” (Incyte Corporation, priority 2018, dated 2024):

B1: NFKBIE (protein, UniProt O00221 1-500, looked up)
NF-kappa-B inhibitor epsilon: MNQRRSESRPGNHRLQAYAEPGKGDSGGAGPLSGSARRGRGGGGAIRVRRPCWSGGAGRGGGPAWAVRLPTVTAGWTWPALRTLSSLRAGPSEPHSPGRRPPRAGRPLCQADPQPGKAARRSLEPDPAQTGPRPARAAGMSEARKGPDEAEESQYDSGIESLRSLRSLPESTSAPASGPSDGSPQPCTHPPGPVKEPQEKEDADGERADSTYGSSSLTYTLSLLGGPEAEDPAPRLPLPHVGALSPQQLEALTYISEDGDTLVHLAVIHEAPAVLLCCLALLPQEVLDIQNNLYQTALHLAVHLDQPGAVRALVLKGASRALQDRHGDTALHVACQRQHLACARCLLEGRPEPGRGTSHSLDLQLQNWQGLACLHIATLQKNQPLMELLLRNGADIDVQEGTSGKTALHLAVETQERGLVQFLLQAGAQVDARMLNGCTPLHLAAGRGLMGISSTLCKAGADSLLRNVEDETPQDLTEESLVLLPFDDLKISGKLLLCTD
B2: CES2 (protein, UniProt O00748 27-559, looked up)
Cocaine esterase: QDSASPIRTTHTGQVLGSLVHVKGANAGVQTFLGIPFAKPPLGPLRFAPPEPPESWSGVRDGTTHPAMCLQDLTAVESEFLSQFNMTFPSDSMSEDCLYLSIYTPAHSHEGSNLPVMVWIHGGALVFGMASLYDGSMLAALENVVVVIIQYRLGVLGFFSTGDKHATGNWGYLDQVAALRWVQQNIAHFGGNPDRVTIFGESAGGTSVSSLVVSPISQGLFHGAIMESGVALLPGLIASSADVISTVVANLSACDQVDSEALVGCLRGKSKEEILAINKPFKMIPGVVDGVFLPRHPQELLASADFQPVPSIVGVNNNEFGWLIPKVMRIYDTQKEMDREASQAALQKMLTLLMLPPTFGDLLREEYIGDNGDPQTLQAQFQEMMADSMFVIPALQVAHFQCSRAPVYFYEFQHQPSWLKNIRPPHMKADHGDELPFVFRSFFGGNYIKFTEEEEQLSRKMMKYWANFARNGNPNGEGLPHWPLFDQEEQYLQLNLQPAVGRALKAHRLQFWKKALPQKIQELEEPEERHTEL
B3: CX3CL1 (protein, UniProt P78423 25-397, looked up)
Fractalkine: QHHGVTKCNITCSKMTSKIPVALLIHYQQNQASCGKRAIILETRQHRLFCADPKEQWVKDAMQHLDRQAAALTRNGGTFEKQIGEVKPRTTPAAGGMDESVVLEPEATGESSSLEPTPSSQEAQRALGTSPELPTGVTGSSGTRLPPTPKAQDGGPVGTELFRVPPVSTAATWQSSAPHQPGPSLWAEAKTSEAPSTQDPSTQASTASSPAPEENAPSEGQRVWGQGQSPRPENSLEREEMGPVPAHTDAFQDWGPGSMAHVSVVPVSSEGTPSREPVASGSWTPKAEEPIHATMDPQRLGVLITPVPDAQAATRRQAVGLLAFLGLLFCLGVAMFTYQSLQGCPRKMAGEMAEGLRYIPRSCGSNSYVLVPV
B4: hOSCAR (protein, UniProt Q8IYS5 19-282, looked up)
Osteoclast-associated …: DITPSVPPASYHPKPWLGAQPATVVTPGVNVTLRCRAPQPAWRFGLFKPGEIAPLLFRDVSSELAEFFLEEVTPAQGGIYRCCYRRPDWGPGVWSQPSDVLELLVTEELPRPSLVALPGPVVGPGANVSLRCAGRLRNMSFVLYREGVAAPLQYRHSAQPWADFTLLGARAPGTYSCYYHTPSAPYVLSQRSEVLVISWEGEGPEARPASSAPGMQAPGPPPSDPGAQAPSLSSFRPRGLVLQPLLPQTQDSWDPAPPPSDPGV
B5: LAT (protein, UniProt O43561 1-262, looked up)
Linker for activation of …: MEEAILVPCVLGLLLLPILAMLMALCVHCHRLPGSYDSTSSDSLYPRGIQFKRPHTVAPWPPAYPPVTSYPPLSQPDLLPIPRSPQPLGGSHRTPSSRRDSDGANSVASYENEGASGIRGAQAGWGVWGPSWTRLTPVSLPPEPACEDADEDEDDYHNPGYLVVLPDSTPATSTAAPSAPALSTPGIRDSAFSMESIDDYVNVPESGESAEASLDGSREYVNVSQELHPGAAKTEPAALSSQEAEEVEEEGAPDYENLQELN
B6: CST5 (protein, UniProt P28325 21-142, looked up)
Cystatin-D: GSASAQSRTLAGGIHATDLNDKSVQCALDFAISEYNKVINKDEYYSRPLQVMAAYQQIVGGVNYYFNVKFGRTTCTKSQPNLDNCPFNDQPKLKEEEFCSFQINEVPWEDKISILNYKCRKV
B7: ST3GAL1 (protein, UniProt Q11201 1-340, looked up)
CMP-N-acetylneuraminate-beta-g …: MVTLRKRTLKVLTFLVLFIFLTSFFLNYSHTMVATTWFPKQMVLELSENLKRLIKHRPCTCTHCIGQRKLSAWFDERFNQTMQPLLTAQNALLEDDTYRWWLRLQREKKPNNLNDTIKELFRVVPGNVDPMLEKRSVGCRRCAVVGNSGNLRESSYGPEIDSHDFVLRMNKAPTAGFEADVGTKTTHHLVYPESFRELGDNVSMILVPFKTIDLEWVVSAITTGTISHTYIPVPAKIRVKQDKILIYHPAFIKYVFDNWLQGHGRYPSTGILSVIFSMHVCDEVDLYGFGADSKGNWHHYWENNPSAGAFRKTGVHDADFESNVTATLASINKIRIFKGR
B8: CNDP1 (protein, UniProt Q96KN2 27-507, looked up)
Beta-Ala-His dipeptidase: SPSPPPALLEKVFQYIDLHQDEFVQTLKEWVAIESDSVQPVPRFRQELFRMMAVAADTLQRLGARVASVDMGPQQLPDGQSLPIPPVILAELGSDPTKGTVCFYGHLDVQPADRGDGWLTDPYVLTEVDGKLYGRGATDNKGPVLAWINAVSAFRALEQDLPVNIKFIIEGMEEAGSVALEELVEKEKDRFFSGVDYIVISDNLWISQRKPAITYGTRGNSYFMVEVKCRDQDFHSGTFGGILHEPMADLVALLGSLVDSSGHILVPGIYDEVVPLTEEEINTYKAIHLDLEEYRNSSRVEKFLFDTKEEILMHLWRYPSLSIHGIEGAFDEPGTKTVIPGRVIGKFSIRLVPHMNVSAVEKQVTRHLEDVFSKRNSSNKMVVSMTLGLHPWIANIDDTQYLAAKRAIRTVFGTEPDMIRDGSTIPIAKMFQEIVHKSVVLIPLGAVDDGEHSQNEKINRWNYIEGTKLFAAFFLEMAQLH
B9: SIRPB1 (protein, UniProt O00241 30-398, looked up)
Signal-regulatory protein …: EDELQVIQPEKSVSVAAGESATLRCAMTSLIPVGPIMWFRGAGAGRELIYNQKEGHFPRVTTVSELTKRNNLDFSISISNITPADAGTYYCVKFRKGSPDDVEFKSGAGTELSVRAKPSAPVVSGPAVRATPEHTVSFTCESHGFSPRDITLKWFKNGNELSDFQTNVDPAGDSVSYSIHSTARVVLTRGDVHSQVICEIAHITLQGDPLRGTANLSEAIRVPPTLEVTQQPMRAENQANVTCQVSNFYPRGLQLTWLENGNVSRTETASTLIENKDGTYNWMSWLLVNTCAHRDDVVLTCQVEHDGQQAVSKSYALEISAHQKEHGSDITHEAALAPTAPLLVALLLGPKLLLVVGVSAIYICWKQKA
B10: SIRT2 (protein, UniProt Q8IXJ6 2-389, looked up)
NAD-dependent protein …: AEPDPSHPLETQAGKVQEAQDSDSDSEGGAAGGEADMDFLRNLFSQTLSLGSQKERLLDELTLEGVARYMQSERCRRVICLVGAGISTSAGIPDFRSPSTGLYDNLEKYHLPYPEAIFEISYFKKHPEPFFALAKELYPGQFKPTICHYFMRLLKDKGLLLRCYTQNIDTLERIAGLEQEDLVEAHGTFYTSHCVSASCRHEYPLSWMKEKIFSEVTPKCEDCQSLVKPDIVFFGESLPARFFSCMQSDFLKVDLLLVMGTSLQVQPFASLISKAPLSTPRLLINKEKAGQSDPFLGMIMGLGGGMDFDSKKAYRDVAWLGECDQGCLALAELLGWKKELEDLVRREHASIDAQSGAGVPNPSTSASPKKSPPPAKDEARTTEREKPQ
B11: PTPRJ (protein, UniProt Q12913 36-1337, looked up)
Receptor-type …: AGGTPSPIPDPSVATVATGENGITQISSTAESFHKQNGTGTPQVETNTSEDGESSGANDSLRTPEQGSNGTDGASQKTPSSTGPSPVFDIKAVSISPTNVILTWKSNDTAASEYKYVVKHKMENEKTITVVHQPWCNITGLRPATSYVFSITPGIGNETWGDPRVIKVITEPIPVSDLRVALTGVRKAALSWSNGNGTASCRVLLESIGSHEELTQDSRLQVNISGLKPGVQYNINPYLLQSNKTKGDPLGTEGGLDASNTERSRAGSPTAPVHDESLVGPVDPSSGQQSRDTEVLLVGLEPGTRYNATVYSQAANGTEGQPQAIEFRTNAIQVFDVTAVNISATSLTLIWKVSDNESSSNYTYKIHVAGETDSSNLNVSEPRAVIPGLRSSTFYNITVCPVLGDIEGTPGFLQVHTPPVPVSDFRVTVVSTTEIGLAWSSHDAESFQMHITQEGAGNSRVEITTNQSIIIGGLFPGTKYCFEIVPKGPNGTEGASRTVCNRTVPSAVFDIHVVYVTTTEMWLDWKSPDGASEYVYHLVIESKHGSNHTSTYDKAITLQGLIPGTLYNITISPEVDHVWGDPNSTAQYTRPSNVSNIDVSTNTTAATLSWQNFDDASPTYSYCLLIEKAGNSSNATQVVTDIGITDATVTELIPGSSYTVEIFAQVGDGIKSLEPGRKSFCTDPASMASFDCEVVPKEPALVLKWTCPPGANAGFELEVSSGAWNNATHLESCSSENGTEYRTEVTYLNFSTSYNISITTVSCGKMAAPTRNTCTTGITDPPPPDGSPNITSVSHNSVKVKFSGFEASHGPIKAYAVILTTGEAGHPSADVLKYTYEDFKKGASDTYVTYLIRTEEKGRSQSLSEVLKYEIDVGNESTTLGYYNGKLEPLGSYRACVAGFTNITFHPQNKGLIDGAESYVSFSRYSDAVSLPQDPGVICGAVFGCIFGALVIVTVGGFIFWRKKRKDAKNNEVSFSQIKPKKSKLIRVENFEAYFKKQQADSNCGFAEEYEDLKLVGISQPKYAAELAENRGKNRYNNVLPYDISRVKLSVQTHSTDDYINANYMPGYHSKKDFIATQGPLPNTLKDFWRMVWEKNVYAIIMLTKCVEQGRTKCEEYWPSKQAQDYGDITVAMTSEIVLPEWTIRDFTVKNIQTSESHPLRQFHFTSWPDHGVPDTTDLLINFRYLVRDYMKQSPPESPILVHCSAGVGRTGTFIAIDRLIYQIENENTVDVYGIVYDLRMHRPLMVQTEDQYVFLNQCVLDIVRSQKDSKVDLIYQNTTAMTIYENLAPVTTFGKTNGYIA
B12: SERPINA5 (protein, UniProt P05154 26-406, looked up)
Plasma serine protease …: EMKKRVEDLHVGATVAPSSRRDFTFDLYRALASAAPSQSIFFSPVSISMSLAMLSLGAGSSTKMQILEGLGLNLQKSSEKELHRGFQQLLQELNQPRDGFQLSLGNALFTDLVVDLQDTFVSAMKTLYLADTFPTNFRDSAGAMKQINDYVAKQTKGKIVDLLKNLDSNAVVIMVNYIFFKAKWETSFNHKGTQEQDFYVTSETVVRVPMMSREDQYHYLLDRNLSCRVVGVPYQGNATALFILPSEGKMQQVENGLSEKTLRKWLKMFKKRQLELYLPKFSIEGSYQLEKVLPSLGISNVFTSHADLSGISNHSNIQVSEMVHKAVVEVDESGTRAAAATGTIFTFRSARLNSQRLVFNRPFLMFIVDNNILFLGKVNRP

System: plasma proteins
Test: Plasma proteins modulated between baseline and day 28 in responders (CR, VGPR, PR; n = 19), Example 6 (Table 13)
Type: in vivo, human
Conditions: plasma protein (OLINK NPX); responders (CR, VGPR, PR; n = 19); itacitinib 200 mg or 300 mg QD with corticosteroids; day 28 vs baseline
Method in brief: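 Plasma at baseline/screening and day 28 profiled for >1000 proteins by OLINK proximity extension assay, reported as NPX (log2). Steroid-naive and steroid-refractory patients pooled. Paired and unpaired t tests, ANOVA and Pearson correlation applied; significance at P<0.05.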

Molecule | Fold Change, Decreased Expression from Baseline to Day 28 | Fold Change, Increased Expression from Baseline to Day 28
B1 | −1.2885 | –
B2 | – | 1.4212
B3 | – | 1.5454
B4 | −1.2603 | –
B5 | −2.049 | –
B6 | – | 1.3521
B7 | – | 1.3415
B8 | – | 1.3856
B9 | −1.3991 | –
B10 | −1.6014 | –
B11 | −1.7421 | –
B12 | – | 1.2683
